Source: paper PMC8017925, “Structural basis for differential recognition of phosphohistidine-containing peptides by 1-pHis and 3-pHis monoclonal antibodies” (Proceedings of the National Academy of Sciences of the …, 2021)
Blank lines part the entries; values can stand above or below the molecule they belong to.

Experiments:
[1] = biological target: T1, ACLYana-1-pHis peptide (AGAG-1-pHis-AGAG); assay: BLI; N-terminally biotinylated peptides (20 nM) on streptavidin biosensors, varying concentrations of Fab in solution; 50 mM Hepes pH 8.0, 150 mM NaCl, 0.05% Tween-20, 0.2% BSA; association 120 s, dissociation 200 s; global fit to a 1:1 Langmuir model; Octet RED96e; in triplicate
T1 sequence (peptide, 1-phosphohistidine at position 5; biotin on the N-terminus): AGAGHAGAG

[2] = biological target: ACLYana-1-pTza peptide (AGAG-1-pTza-AGAG); assay: as above
[3] = biological target: T2, ACLY peptide, 3-pHis form; assay: BLI; biotinylated pHis peptides (20 nM) on streptavidin biosensors, Fab in solution at varying concentrations; 50 mM Hepes pH 8.0, 150 mM NaCl, 0.05% Tween-20, 0.2% BSA; Octet RED96e; global fit to a 1:1 Langmuir model
T2 sequence (peptide, biotin on the N-terminus; C-terminal amide; 3-phosphohistidine at position 5): VQFGHAGAC

[4] = biological target: T3, Common-His peptide, 3-pHis form; assay: as above
T3 sequence (peptide, biotin on the N-terminus; C-terminal amide; 3-phosphohistidine at position 5): GEQLHDLNA

[5] = biological target: T4, NM23 peptide, 3-pHis form; assay: as above
T4 sequence (peptide, biotin on the N-terminus; C-terminal amide; 3-phosphohistidine at position 5): RNIIHGSDS

[6] = substrate: SCS peptide, 3-pHis form; assay: as above
[7] = biological target: T5, ACLYana-3-pHis peptide (AGAG-3-pHis-AGAG); assay: BLI; N-terminally biotinylated peptides (20 nM) on streptavidin biosensors, varying concentrations of Fab in solution; 50 mM Hepes pH 8.0, 150 mM NaCl, 0.05% Tween-20, 0.2% BSA; association 120 s, dissociation 200 s; global fit to a 1:1 Langmuir model; Octet RED96e; in triplicate
T5 sequence (peptide, 3-phosphohistidine at position 5; biotin on the N-terminus): AGAGHAGAG

[8] = biological target: ACLYana-3-pTza peptide (AGAG-3-pTza-AGAG); assay: as above
[9] = biological target: ACLYana-3-pTza peptide (AGAG-3-pTza-AGAG); assay: BLI binding kinetics of 3-pHis Fabs with cognate pTza peptide; settings: triplicate; for Kd: BLI Octet RED96e, N-terminally biotinylated peptide (20 nM) on streptavidin biosensors, varying Fab concentration, 50 mM Hepes pH 8.0, 150 mM NaCl, 0.05% Tween-20, 0.2% BSA, association 120 s, dissociation 200 s, global fit 1:1 Langmuir; for ka / kd: BLI, immobilized biotinylated ACLYana-3-pTza, 1:1 Langmuir global fit
Protocol: (§1) Biolayer interferometry (BLI) studies were performed to determine the relative affinity of pHis Fabs to in situ phosphorylated His peptides versus the phosphomimetic substrates. The N-terminally biotinylated peptides were immobilized on streptavidin biosensors and the rate of association (ka) and dissociation (kd) were determined by varying the pHis Fab concentration. Equilibrium dissociation constants (KD) were determined by fitting the experimental data to a 1:1 Langmuir binding model. ACLYana-1-pTza and ACLYana-3-pTza peptides were used to determine affinity to 1-pHis and 3-pHis Fabs, respectively (Fig. 3 A–E and Table 1). […] The two isomers were separated from each other by passing the reaction through affinity columns containing 1-pHis mAbs using SC1-1 or SC50-3 IgGs or 3-pHis mAbs using SC39-4, SC44-8, and SC56-2 IgGs. The eluates thus contained either predominantly 1-pHis or 3-pHis peptides. These peptides were used to determine the affinity to their respective isomer class of pHis Fabs (Fig. 3 F–J, Table 1, and SI Appendix, Fig. S5). […] This experimental observation is well supported by the higher number of hydrogen bonds that support the SC44-8:3-pTza interaction compared to other pHis Fabs (SI Appendix, Table S5). […] There are at least three reasons for the lower affinity of the mAbs for pHis peptides compared to pTza peptides: The continuous hydrolysis of phosphate from the pHis peptides during the course of the experiment (SI Appendix, Fig. S6), a reduction in the number of hydrogen bond interactions due to one less nitrogen in the imidazole ring compared to triazolyl ring (Fig. 4 and SI Appendix, Fig. S8), and inherently different electronic properties of the imidazole and triazolyl rings in His and Tza, respectively ([20]).
(§2) Fig. 3. Binding kinetics of pHis Fabs with cognate pTza and pHis peptides. BLI studies of immobilized peptides (ACLYana-1/3-pTza and phosphorylated ACLYana) with varying concentrations of the pHis Fabs were carried out in triplicate on an Octet Red96e instrument (FortéBio). SC1-1 (A) and SC50-3 (B) pHis Fab interaction with their ACLYana-1-pTza peptides. SC39-4 (C), SC44-8 (D), and SC56-2 (E) pHis Fabs interactions with ACLYana-3-pTza peptides. SC1-1 (F), SC50-3 (G), SC39-4 (H), SC44-8 (I), and SC56-2 (J) pHis Fabs interactions with their affinity-purified ACLYana-pHis peptides are represented, Right. The experimental data are represented in the black dashed lines and the nonlinear least-squares fitting was represented in the red continuous lines. The χ^2 for the goodness of fit is under 1.0 for the all the plots.
(§3) The binding kinetics of pHis Fabs with the peptides (pTza and pHis) were evaluated with an Octet RED96e (FortéBio). Streptavidin-coated biosensors (FortéBio) were presoaked in buffer containing 50 mM Hepes pH 8.0, 150 mM NaCl, 0.05% Tween-20, and 0.2% BSA for 15 min. The biotinylated pTza peptides or pHis peptides (20 nM) with and without phosphoramidate treatment were coated onto these streptavidin biosensors and analyzed for their binding to varying concentrations of the pHis Fabs with an association time of 120 s and dissociation time of 200 s. The entire set of experiments was repeated three times. The data were analyzed using the Octet software (FortéBio) and the rates of association and dissociation were obtained by global fitting data to the 1:1 Langmuir interaction model.

[10] = tested on: ACLYana-3-pHis peptide (AGAG-3-pHis-AGAG); assay: BLI binding kinetics of 3-pHis Fabs with affinity-purified pHis peptide; settings: for ka / kd / Kd: BLI, 1:1 Langmuir global fit, triplicate; for ka / kd: affinity-purified ACLYana-3-pHis peptide; for Kd: ACLYana phosphorylated with phosphoramidate (8 h, 23 °C), 3-pHis isomer affinity-purified on 3-pHis IgG column, immobilized on streptavidin biosensors, Hepes pH 8.0; for affinity for 3-pHis peptides, times (fold) weaker than for the 3-pTza peptide: ratio of BLI KD, 3-pHis versus 3-pTza peptide
Protocol: as §1, §2
as §3, with “model. […]” for “model.”
Peptides used in the DSF and BLI experiments were synthesized by the Salk Peptide Synthesis Core. These peptides were N-terminally biotinylated and C-terminally amidated. They were synthesized using standard Fmoc chemistry on a Gyros Protein Technologies Tribute peptide synthesizer with UV monitoring. Following the deprotection, peptides were analyzed by mass spectrometry and analytical HPLC by the Proteomics Core at Salk. The peptides were HPLC purified to 99% purity by 21st Century Biochemicals, Inc. The Fmoc-pTza’s were synthesized at 10 g scale for incorporation into the peptides. […]

B1: SC1-1 Fab (Fab, V domains shown)
VH: QSVEESEGGLFKPTDTLTLTCTASGFSLSGHGVIWVRQAPGKGLEWIGSAGAYGRIYYASWAKSRSTITRNTNLNTVTLKMTSLTAADTATYFCARRSDVGTSVGFDSWGPGTLVTISS
VL: DMTQTPSSKSVPVGDTVTINCQASESVYSNNRLSWFQQKPGQPPKLLIYLVSTLASGVPSRFKGSGSGTQFTLTISDVVCDDAATYYCVGYKSSTTDGLAFGGGTEVVVK
Kd [1]: 95.1 nM
koff [1]: 0.00925 s⁻¹
kon [1]: 97300 M⁻¹ s⁻¹
Kd [2]: 24.8 nM
koff [2]: 0.00199 s⁻¹
kon [2]: 81300 M⁻¹ s⁻¹

B3: SC39-4: Fab of rabbit 3-pHis-specific monoclonal antibody (antibody, V domains shown)
VH: QSVEESGGRLVTPGGSLTLTCTVSGFSLSRYNMGWVRQAPGKGLEWIGWIPFRGSLKYATWATGRFTISRTSTTVDLRMTGLTAADTATYFCVRSSDGFDLWGPGTLVTISS
VL: DMTQTPASVEAVVGGTVTIKCQASRDTGDGLIWYQQKPGQPPKRLIYKASTVASGVPSRFKGRGSGTDFTLTISDLECADAATYYCHSNFYNRWTYGNAFGGGTEVVVK
Kd [9]: 67 nM
ka [9]: 164000 ± 1060 M⁻¹ s⁻¹
kd [9]: 0.011 ± 1.6e-05 s⁻¹
ka [10]: 147000 ± 5780 M⁻¹ s⁻¹
kd [10]: 0.117 ± 0.0016 s⁻¹
Kd [10]: 799 nM
affinity for 3-pHis peptides, times (fold) weaker than for the 3-pTza peptide [10]: 10 to 25 times

B4: SC56-2 Fab (Fab, V domains shown)
VH: QSVEESEGGLIKPGGILTLTCTASGFSLSSYGFSWVRQAPGKGLEHIGYLHANGRAYYATWAKSRSTITRNTNLNTVTLQLTSLTAADTATYFCAKIGSVSDVAIWGPGTLVTISS
VL: DMTQTPSSTSAAVGGTVTINCQSSESIYNNKNLAWYQQKPGQSPRRLIYSISTLASGVSSRFKGSGSGTQFTLTISDVQCDDAATYYCVGYYYSGGYYYSGSAAYYAFGGGTEVVVK
Kd [3]: 3010 nM
koff [3]: 0.15 s⁻¹
kon [3]: 50100 M⁻¹ s⁻¹
Kd [4]: 3600 nM
koff [4]: 0.127 s⁻¹
kon [4]: 35600 M⁻¹ s⁻¹
Kd [5]: 5700 nM
koff [5]: 0.126 s⁻¹
kon [5]: 22200 M⁻¹ s⁻¹
Kd [6]: 6200 nM
koff [6]: 0.136 s⁻¹
kon [6]: 22000 M⁻¹ s⁻¹
Kd [7]: 2420 nM
koff [7]: 0.183 s⁻¹
kon [7]: 75600 M⁻¹ s⁻¹
Kd [8]: 96.6 nM
koff [8]: 0.00939 s⁻¹
kon [8]: 97300 M⁻¹ s⁻¹

Second part, the molecule after the results:

Kd [3]: 1420 nM
koff [3]: 0.0243 s⁻¹
kon [3]: 72200 M⁻¹ s⁻¹
Kd [4]: 3290 nM
koff [4]: 0.0454 s⁻¹
kon [4]: 13800 M⁻¹ s⁻¹
Kd [5]: 2350 nM
koff [5]: 0.073 s⁻¹
kon [5]: 51400 M⁻¹ s⁻¹
Kd [6]: 2320 nM
koff [6]: 0.0521 s⁻¹
kon [6]: 22400 M⁻¹ s⁻¹
Kd [7]: 799 nM
koff [7]: 0.117 s⁻¹
kon [7]: 147000 M⁻¹ s⁻¹
Kd [8]: 67 nM
koff [8]: 0.011 s⁻¹
kon [8]: 164000 M⁻¹ s⁻¹
B2: SC39-4 Fab (Fab, V domains shown)
VH: B3 VH
VL: B3 VL

Kd [9]: 96.6 nM
ka [9]: 97300 ± 1110 M⁻¹ s⁻¹
kd [9]: 0.00939 ± 1.78e-05 s⁻¹
ka [10]: 75600 ± 2170 M⁻¹ s⁻¹
kd [10]: 0.183 ± 0.00181 s⁻¹
Kd [10]: 2420 nM
affinity for 3-pHis peptides, times (fold) weaker than for the 3-pTza peptide [10]: 10 to 25 times
B5: SC56-2: Fab of rabbit 3-pHis-specific monoclonal antibody (antibody, V domains shown)
VH: B4 VH
VL: B4 VL
